Data on six molecules can be found in patent US20250134988A1 (WISTAR INSTITUTE OF ANATOMY AND BIOLOGY, published 2025).

For one test, the target named is T1, CoV2_5P_FPKO1 (SARS-CoV-2, UniProt P0DTC2 14-1208).
T1 construct: also called 5P KO1
In words: ELISA. For orientation: In an ELISA, binding on a coated surface is turned into a signal by an enzyme label.

The target in another test is T2, CoV2_5P_NonSFP (SARS-CoV-2, UniProt P0DTC2 14-1208).
T2 construct: also called scrambled fusion peptide spike
In words: ELISA, AUC, on 5P spikes with swapped fusion peptides.

Test [1] concerns the target T3, CoV2_5P prefusion-stabilized spike protein (SARS-CoV-2, UniProt P0DTC2 14-1208).
T3 construct: also called 5P trimer; wildtype 5P
In words: ELISA, AUC ratio to wildtype C2691.

B1: C2691 (antibody, V domains shown)
VH: QVQLQQSGPELVRPGESVKISCKGSGYTFTDYAMHWVKQSHAKSLEWIGIISFYYDNTKYNQNFKGKATMTVDKSSSTAYMELARLTSEDSAIYFCASQGIHYYGSFAYWGQGTLVTVSA
VL: DIVMTQSQKFMSTSVGDRVSVSCKASQNVGTNLGWYQQKPGQSPKALIYSASYRYSGVPDRFTGSGSGTDFTLTISNVQSEDLAEYFCQQYNSSPLTFGAGTKLELK
notes: also called lineage HV1-67/KV6-15 antibody C2691
As to B1, the binding result with CoV2_5P_FPKO1 is reported as “binds”.

B2: Y111A (antibody, V domains shown)
VH: QVQLQQSGPELVRPGESVKISCKGSGYTFTDYAMHWVKQSHAKSLEWIGIISFYYDNTKYNQNFKGKATMTVDKSSSTAYMELARLTSEDSAIYFCASQGIHAYGSFAYWGQGTLVTVSA
VL: DIVMTQSQKFMSTSVGDRVSVSCKASQNVGTNLGWYQQKPGQSPKALIYSASYRYSGVPDRFTGSGSGTDFTLTISNVQSEDLAEYFCQQYNSSPLTFGAGTKLELK
notes: member of the group m29; also called C2691 Y111A; C2691 CDR3 alanine scanning mutant
For the molecule B2, the binding result in the test with CoV2_5P_NonSFP is given as “no binding”.

B3: I109A (antibody, V domains shown)
VH: QVQLQQSGPELVRPGESVKISCKGSGYTFTDYAMHWVKQSHAKSLEWIGIISFYYDNTKYNQNFKGKATMTVDKSSSTAYMELARLTSEDSAIYFCASQGAHYYGSFAYWGQGTLVTVSA
VL: DIVMTQSQKFMSTSVGDRVSVSCKASQNVGTNLGWYQQKPGQSPKALIYSASYRYSGVPDRFTGSGSGTDFTLTISNVQSEDLAEYFCQQYNSSPLTFGAGTKLELK
notes: member of the group m29; also called C2691 I109A; C2691 CDR3 alanine scanning mutant
For the molecule B3, the binding result in test [1] is recorded as “binds”; with CoV2_5P_NonSFP, “no binding”.

B4: H110A (antibody, V domains shown)
VH: QVQLQQSGPELVRPGESVKISCKGSGYTFTDYAMHWVKQSHAKSLEWIGIISFYYDNTKYNQNFKGKATMTVDKSSSTAYMELARLTSEDSAIYFCASQGIAYYGSFAYWGQGTLVTVSA
VL: DIVMTQSQKFMSTSVGDRVSVSCKASQNVGTNLGWYQQKPGQSPKALIYSASYRYSGVPDRFTGSGSGTDFTLTISNVQSEDLAEYFCQQYNSSPLTFGAGTKLELK
notes: member of the group m29; also called C2691 H110A; C2691 CDR3 alanine scanning mutant
In the case of B4, the binding result in test [1] was “binds”; with CoV2_5P_NonSFP, “no binding”.

B5: Q107A (antibody, V domains shown)
VH: QVQLQQSGPELVRPGESVKISCKGSGYTFTDYAMHWVKQSHAKSLEWIGIISFYYDNTKYNQNFKGKATMTVDKSSSTAYMELARLTSEDSAIYFCASAGIHYYGSFAYWGQGTLVTVSA
VL: DIVMTQSQKFMSTSVGDRVSVSCKASQNVGTNLGWYQQKPGQSPKALIYSASYRYSGVPDRFTGSGSGTDFTLTISNVQSEDLAEYFCQQYNSSPLTFGAGTKLELK
notes: member of the group m29; also called C2691 Q107A; C2691 CDR3 alanine scanning mutant
Regarding B5, the binding result in the test with CoV2_5P_NonSFP is reported as “no binding”.

B6: Y112A (antibody, V domains shown)
VH: QVQLQQSGPELVRPGESVKISCKGSGYTFTDYAMHWVKQSHAKSLEWIGIISFYYDNTKYNQNFKGKATMTVDKSSSTAYMELARLTSEDSAIYFCASQGIHYAGSFAYWGQGTLVTVSA
VL: DIVMTQSQKFMSTSVGDRVSVSCKASQNVGTNLGWYQQKPGQSPKALIYSASYRYSGVPDRFTGSGSGTDFTLTISNVQSEDLAEYFCQQYNSSPLTFGAGTKLELK
notes: member of the group m29; also called C2691 Y112A; C2691 CDR3 alanine scanning mutant
For B6, the binding result in test [1] is “binds”; with CoV2_5P_NonSFP it was “no binding”.
